{"source": "paper PMC4574524", "biological_target": "PFD1235w DBLβ3_D4, wild type (P. falciparum 3D7)", "experiment": "SPR", "data": [{"substance": "ICAM-1_D1-D2 (domain or fragment)", "values": [{"measurement": "Kd", "result": 7.9, "unit": "nM"}, {"measurement": "koff", "result": 0.00167, "unit": "s⁻¹"}]}]}
